± gives the uncertainty stated by the source.
Test: protein stability index of a GFP-peptide fusion (yeast GPS) (PSI 1-4); higher = more stable; sorted into four equal gates, so the index is relative within each strain
Outline: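 The protein stability index combines read frequencies across sorting gates, each weighted by its gate number and then summed. To obtain those frequencies, a pooled yeast library of GFP fusions to tiled 17-residue yeast protein peptides, on a plasmid also expressing Cherry, was grown to mid-log phase in leucine-free medium. The cells were sorted into four equal gates by GFP/Cherry ratio before plasmid amplification by PCR and Illumina sequencing.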

| Sequence | protein stability index (doa10∆) | protein stability index (pdr5∆) | protein stability index (san1∆) | protein stability index (ubr1∆) |
| --- | --- | --- | --- | --- |
| YHLHPTFANPNRTFTDP [TAF14] | 1.94 ± 0.068 | 2.02 ± 0.055 | 2.21 ± 0.1 | 1.7 ± 0.036 |
| WLEEYHPKLIKNKSGKI [FAS1] | 1.59 ± 0.12 | 1.83 ± 0.075 | 1.42 ± 0.092 | 1.67 ± 0.046 |
| VGEMKLLKKKDDPSKVR [YLR335W/NUP2] | 3.29 ± 0.08 | 3.32 ± 0.15 | 2.98 ± 0.091 | 2.74 ± 0.16 |
| PLLSLDVTPISMFGSDQ [RPN4] | 2.75 ± 0.12 | 2.79 ± 0.18 | 3.12 ± 0.13 | 3.18 ± 0.17 |
| FRTDMLQVADKFFRVKY [SMC3] | 1.92 ± 0.068 | 2.49 ± 0.066 | 1.77 ± 0.076 | 2.12 ± 0.051 |
| PTSPSYSPTSPSYSPTS [RPO21] | 2.59 ± 0.044 | 2.99 ± 0.041 | 2.66 ± 0.04 | 2.85 ± 0.037 |
| ITPSAMKLVPSIPPATI [RPB5] | 2.32 ± 0.054 | 2.56 ± 0.069 | 2.35 ± 0.057 | 2.5 ± 0.054 |
| KKLEITSDGALSVMCGC [RPR2] | 2.63 ± 0.047 | 2.82 ± 0.054 | 2.8 ± 0.043 | 2.933 ± 0.029 |
| PAFSFNSSVGNKTDAQA [YJL041W/NSP1] | 2.82 ± 0.14 | 3.47 ± 0.11 | 2.85 ± 0.1 | 3.16 ± 0.085 |
| KGEEAKLDSKKTVPFQV [SSN3] | 3.27 ± 0.087 | 3.37 ± 0.055 | 3.2 ± 0.097 | 3.23 ± 0.066 |
| KVISSDARGVIGVIAGG [RPL2A] | 2.81 ± 0.086 | 2.82 ± 0.091 | 2.85 ± 0.1 | 2.84 ± 0.12 |
| DNDTVVTNDDKSDDDDH [SRB8] |  | 2.88 ± 0.15 | 3.24 ± 0.26 | 3.19 ± 0.11 |
| NMNLNPQMFLNQQAQAR [GAL11] | 1.92 ± 0.035 | 2.42 ± 0.035 | 2.37 ± 0.056 | 2.04 ± 0.03 |
| KESIVLPTVGFDFIKDN [YOR098C/NUP1] | 2.39 ± 0.14 | 2.65 ± 0.11 | 3.05 ± 0.16 | 2.83 ± 0.07 |
| SKTVKVLKTLIEKFEQV [RPN6] | 2.27 ± 0.2 | 3.25 ± 0.1 | 3.07 ± 0.11 | 2.83 ± 0.07 |
| EELKDSEINEILARNDE [SNF2] | 3.2 ± 0.18 | 3.55 ± 0.12 | 2.66 ± 0.13 | 3.32 ± 0.089 |
| GCLVKREDLNKAEYVDQ [RPO31] |  | 3.13 ± 0.21 |  |  |
| QANTEPENITKREASRG [MCD1] | 3.01 ± 0.079 | 2.84 ± 0.073 | 3.03 ± 0.06 | 3.13 ± 0.047 |
| EQEIENNGLPMKNKAET [ITC1] | 2.81 ± 0.065 | 3.06 ± 0.066 | 3 ± 0.045 | 2.9 ± 0.067 |
| EMVKDRGYFITQEEVEL [RPB5] | 2.62 ± 0.071 | 2.08 ± 0.071 | 1.74 ± 0.066 | 2.1 ± 0.042 |
| TGAYIANRVTDKLTRVH [PRE3] | 1.57 ± 0.068 | 1.76 ± 0.059 | 1.59 ± 0.083 | 1.54 ± 0.056 |
| LIIDGQIIFGVVEKKTV [RPO21] | 1.37 ± 0.087 | 1.38 ± 0.065 | 1.2 ± 0.2 | 1.54 ± 0.07 |
| MANKEWRVREASTSALL [ECM29] |  |  |  | 2.26 ± 0.2 |
| RIVNHKTKLWGFKWLNK [LIN1] | 2.87 ± 0.13 | 3.1 ± 0.13 | 2.87 ± 0.3 | 2.88 ± 0.091 |
| SYQKLLKNYVLNELHPT [PRP8] | 1.62 ± 0.039 | 1.57 ± 0.034 | 1.55 ± 0.057 | 1.75 ± 0.033 |
| VGHLSILPQQSKLKLKN [ECM29] | 1.91 ± 0.16 | 2.31 ± 0.1 | 1.88 ± 0.13 | 2.5 ± 0.15 |
| SPASGIVDKYIGESARI [RPT4] | 2.95 ± 0.27 | 2.84 ± 0.18 | 2.45 ± 0.16 |  |

| Sequence | protein stability index (doa10∆) | protein stability index (pdr5∆) | protein stability index (san1∆) | protein stability index (ubr1∆) |
| --- | --- | --- | --- | --- |
| AVGNLGNAVTVTEDGTV [RPL22A] | 1.46 ± 0.062 | 1.96 ± 0.094 | 2.22 ± 0.095 | 1.99 ± 0.094 |
| GKIEKIAQSKKKNNKIK [SRP21] | 3.11 ± 0.094 | 3.02 ± 0.078 | 3.01 ± 0.066 | 3.14 ± 0.057 |
| TQAKRIFLQQFLQELLK [SWI1] | 2.62 ± 0.072 | 2.42 ± 0.092 | 2.43 ± 0.082 | 2.1 ± 0.064 |
| TEALLLEHDVEYRPFSK [DIS3] | 3.18 ± 0.095 | 3.08 ± 0.085 | 3.17 ± 0.08 | 3.3 ± 0.082 |
| EYKLATYGVPGSENKRG [NUT1] | 3.36 ± 0.086 | 3.25 ± 0.093 | 3.33 ± 0.046 | 2.96 ± 0.065 |
| TYNMIDAAAEKRNGDEV [ARP7] | 2.85 ± 0.066 | 3.03 ± 0.07 | 3.13 ± 0.055 | 3.18 ± 0.044 |
| TSAASGDAAPAEEAAAE [RPP0] |  | 3.44 ± 0.13 | 3.13 ± 0.14 | 3.34 ± 0.11 |
| SENRFPGWDFETEEIDP [RPL5] | 2.77 ± 0.14 | 2.78 ± 0.076 | 2.48 ± 0.078 | 2.5 ± 0.16 |
| KNLNPASSSPSSTDFST [ECM29] | 3.11 ± 0.049 | 2.81 ± 0.045 | 2.97 ± 0.056 | 2.91 ± 0.032 |
| QGGFYKQQDAEELFTQL [UBP6] | 3.38 ± 0.078 | 3.44 ± 0.12 | 3.07 ± 0.097 | 3.21 ± 0.075 |
| GYKSTVKSLRQGKSKLI [RPL30] | 1.31 ± 0.08 | 1.35 ± 0.059 | 1.4 ± 0.2 | 1.48 ± 0.061 |
| PRVKGFKMNEIVPLHSP [SEC65] | 2.89 ± 0.087 | 3.01 ± 0.12 | 3.09 ± 0.079 | 2.87 ± 0.066 |
| ATQKESLEMVPKDTSAA [RGR1] | 3.25 ± 0.087 | 3.25 ± 0.07 | 3.09 ± 0.055 | 3.17 ± 0.05 |
| LSSAGAKSTVETFISSM [RIP1] | 3.08 ± 0.17 | 2.8 ± 0.13 | 2.86 ± 0.072 | 2.69 ± 0.11 |
| DGTAKEVGDEADNTKDK [MED4] | 3.06 ± 0.11 | 3.18 ± 0.12 | 3.34 ± 0.088 | 3.22 ± 0.077 |
| DEKNKNNNEDNENNNNS [MED2] | 3.11 ± 0.084 | 3.39 ± 0.069 | 3.17 ± 0.062 | 3.28 ± 0.064 |
| KRPIESGTSSDPDTKKV [YIL149C/MLP2] | 3.35 ± 0.079 | 3.2 ± 0.053 | 3.2 ± 0.062 | 3.29 ± 0.072 |
| YHSAGGRDKHALSLLYH [SSN3] | 3.12 ± 0.082 | 3.02 ± 0.066 | 3.19 ± 0.059 | 3.32 ± 0.066 |
| LNDRKVLFAAYKVEHPF [RPB11] | 1.72 ± 0.055 | 2.23 ± 0.058 | 2.03 ± 0.084 | 2.27 ± 0.051 |
| DLCDVVESKFTEKIKSM [RPC19] | 3.43 ± 0.2 | 2.9 ± 0.11 | 3.33 ± 0.1 | 3.44 ± 0.077 |
| KVLTALSRLQKSGRING [SMC4] |  | 3.43 ± 0.2 | 3.29 ± 0.083 | 3.43 ± 0.19 |
| ELDTASRILKAQSRNVE [YGR119C/NUP57] | 2.35 ± 0.055 | 2.34 ± 0.063 | 2.03 ± 0.077 | 2.43 ± 0.056 |
| KTDTKVSFRTHNSHLSL [SRP21] | 3.03 ± 0.059 | 3.06 ± 0.053 | 2.92 ± 0.053 | 3.15 ± 0.048 |
| NAYASFLQRQGKLEVPG [RPS19A] |  | 3.24 ± 0.19 | 3.21 ± 0.12 | 3.2 ± 0.094 |
| NTTKPAFGGLNFGGGNN [YJL041W/NSP1] | 2.71 ± 0.054 | 3.2 ± 0.061 | 3.01 ± 0.045 | 3.13 ± 0.068 |
| VRIPPDQFHRDTISAIT [RPC25] | 1.91 ± 0.042 | 2.43 ± 0.048 | 2.02 ± 0.064 | 1.8 ± 0.032 |

Reference: the supplement of paper PMC9732359
